Series [1] concerns the molecule itself. Nature of the series: SEC + other: negative-staining electron microscopy.
Series [2] deals with the molecule itself. Nature of the series: cryo-EM structure.
Series [3] deals with the molecule itself. The series can be described thus: cryo-EM structure. This is another data set of the same source.
Series [4] concerns the molecule itself. The series can be described thus: negative-staining electron microscopy.

“And” between values parts separate entries of the source, which are not always exact repeats. Equal entries are not always repeated. Where two headings read alike, the source gives them in different places.

B1: yeast TRiC subunit CCT4 (natural protein, UniProt P39078 1-528, looked up)
chain: MSAKVPSNATFKNKEKPQEVRKANIIAARSVADAIRTSLGPKGMDKMIKTSRGEIIISNDGHTILKQMAILHPVARMLVEVSAAQDSEAGDGTTSVVILTGALLGAAERLLNKGIHPTIIADSFQSAAKRSVDILLEMCHKVSLSDREQLVRAASTSLSSKIVSQYSSFLAPLAVDSVLKISDENSKNVDLNDIRLVKKVGGTIDDTEMIDGVVLTQTAIKSAGGPTRKEKAKIGLIQFQISPPKPDTENNIIVNDYRQMDKILKEERAYLLNICKKIKKAKCNVLLIQKSILRDAVNDLALHFLSKLNIMVVKDIEREEIEFLSKGLGCKPIADIELFTEDRLGSADLVEEIDSDGSKIVRVTGIRNNNARPTVSVVIRGANNMIIDETERSLHDALCVIRCLVKERGLIAGGGAPEIEISRRLSKEARSMEGVQAFIWQEFASALEVIPTTLAENAGLNSIKVVTELRSKHENGELNDGISVRRSGTTNTYEEHILQPVLVSTSAITLASECVKSILRIDDIAFSR
B1: the binding result in series [1] was “binds”.

B2: yeast TRiC subunit CCT8 (natural protein, UniProt P47079 1-568, looked up)
chain: MSLRLPQNPNAGLFKQGYNSYSNADGQIIKSIAAIRELHQMCLTSMGPCGRNKIIVNHLGKIIITNDAATMLRELDIVHPAVKVLVMATEQQKIDMGDGTNLVMILAGELLNVSEKLISMGLSAVEIIQGYNMARKFTLKELDEMVVGEITDKNDKNELLKMIKPVISSKKYGSEDILSELVSEAVSHVLPVAQQAGEIPYFNVDSIRVVKIMGGSLSNSTVIKGMVFNREPEGHVKSLSEDKKHKVAVFTCPLDIANTETKGTVLLHNAQEMLDFSKGEEKQIDAMMKEIADMGVECIVAGAGVGELALHYLNRYGILVLKVPSKFELRRLCRVCGATPLPRLGAPTPEELGLVETVKTMEIGGDRVTVFKQEQGEISRTSTIILRGATQNNLDDIERAIDDGVAAVKGLMKPSGGKLLPGAGATEIELISRITKYGERTPGLLQLAIKQFAVAFEVVPRTLAETAGLDVNEVLPNLYAAHNVTEPGAVKTDHLYKGVDIDGESDEGVKDIREENIYDMLATKKFAINVATEAATTVLSIDQIIMAKKAGGPRAPQGPRPGNWDQED
B2: the binding result in series [1] is “binds”.

B3: yeast TRiC subunit CCT6 (natural protein)
chain: not shown
With B3, the stoichiometry N (usually a count of units in the complex or per binding partner) was 8 subunits per ring and 9 subunits per ring in the series “cryo-EM structure [2]”; 8 subunits per ring (double ring) and 9 subunits per ring (double ring) in the series “cryo-EM structure [3]”.

B4: yeast TRiC subunit CCT7 (natural protein, UniProt P42943 1-550, looked up)
chain: MNFGSQTPTIVVLKEGTDASQGKGQIISNINACVAVQEALKPTLGPLGSDILIVTSNQKTTISNDGATILKLLDVVHPAAKTLVDISRAQDAEVGDGTTSVTILAGELMKEAKPFLEEGISSHLIMKGYRKAVSLAVEKINELAVDITSEKSSGRELLERCARTAMSSKLIHNNADFFVKMCVDAVLSLDRNDLDDKLIGIKKIPGGAMEESLFINGVAFKKTFSYAGFEQQPKKFNNPKILSLNVELELKAEKDNAEVRVEHVEDYQAIVDAEWQLIFEKLRQVEETGANIVLSKLPIGDLATQFFADRNIFCAGRVSADDMNRVIQAVGGSIQSTTSDIKPEHLGTCALFEEMQIGSERYNLFQGCPQAKTCTLLLRGGAEQVIAEVERSLHDAIMIVKRALQNKLIVAGGGATEMEVSKCLRDYSKTIAGKQQMIINAFAKALEVIPRQLCENAGFDAIEILNKLRLAHSKGEKWYGVVFETENIGDNFAKFVWEPALVKINALNSATEATNLILSVDETITNKGSESANAGMMPPQGAGRGRGMPM
In the case of B4, in series [1], the binding result is on record as “binds”.

B5: yeast TRiC subunit CCT1 (natural protein)
chain: not shown
As for B5, the figures for the “stoichiometry N” value in the series “cryo-EM structure [2]” and in “cryo-EM structure [3]” were 9 subunit pairs and 8 subunits per ring (double ring), respectively.

B6: yeast TRiC subunit CCT2 (natural protein)
chain: MSVQIFGDQVTEERAENARLSAFVGAIAVGDLVKSTLGPKGMDKLLQSASSNTCMVTNDGATILKSIPLDNPAAKVLVNISKVQDDEVGDGTTSVTVLSAELLREAEKLIDQSKIHPQTIIEGYRLASAAALDALTKAAVDNSHDKTMFREDLIHIAKTTLSSKILSQDKDHFAELATNAILRLKGSTNLEHIQIIKILGGKLSDSFLDEGFILAKKFGNNQPKRIENAKILIANTTLDTDKVKIFGTKFKVDSTAKLAQLEKAEREKMKNKIAKISKFGINTFINRQLIYDYPEQLFTDLGINSIEHADFEGVERLALVTGGEVVSTFDEPSKCKLGECDVIEEIMLGEQPFLKFSGCKAGEACTIVLRGATDQTLDEAERSLHDALSVLSQTTKETRTVLGGGCAEMVMSKAVDTEAQNIDGKKSLAVEAFARALRQLPTILADNAGFDSSELVSKLRSSIYNGISTSGLDLNNGTIADMRQLGIVESYKLKRAVVSSASEAAEVLLRVDNIIRARPRTANRQHM
For the protein B6, the “stoichiometry N” value in “cryo-EM structure [3]” is 8 subunits per ring (double ring).

B7: yeast TRiC subunit CCT3 (natural protein, UniProt P39077 1-534, looked up)
chain: MQAPVVFMNASQERTTGRQAQISNITAAKAVADVIRTCLGPKAMLKMLLDPMGGLVLTNDGHAILREIDVAHPAAKSMLELSRTQDEEVGDGTTTVIILAGEILAQCAPYLIEKNIHPVIIIQALKKALTDALEVIKQVSKPVDVENDAAMKKLIQASIGTKYVIHWSEKMCELALDAVKTVRKDLGQTVEGEPNFEIDIKRYVRVEKIPGGDVLDSRVLKGVLLNKDVVHPKMSRHIENPRVVLLDCPLEYKKGESQTNIEIEKEEDWNRILQIEEEQVQLMCEQILAVRPTLVITEKGVSDLAQHYLLKGGCSVLRRVKKSDNNRIARVTGATIVNRVEDLKESDVGTNCGLFKVEMIGDEYFSFLDNCKEPKACTIMLRGGSKDILNEIDRNLQDAMAVARNVMLSPSLSPGGGATEMAVSVKLAEKAKQLEGIQQWPYQAVADAMECIPRTLIQNAGGDPIRLLSQLRAKHAQGNFTTGIDGDKGKIVDMVSYGIWEPEVIKQQSVKTAIESACLLLRVDDIVSGVRKQE
For the protein B7, the binding result in series [1] is “binds”.

B8: yeast CCT5 with the N-terminal 24 amino acids truncated (CCT5^ΔNT) (domain or fragment, UniProt P40413 25-562, looked up)
chain: MGRPFIIVKDQGNKKRQHGLEAKKSHILAARSVASIIKTSLGPRGLDKILISPDGEITITNDGATILSQMELDNEIAKLLVQLSKSQDDEIGDGTTGVVVLASALLDQALELIQKGIHPIKIANGFDEAAKLAISKLEETCDDISASNDELFRDFLLRAAKTSLGSKIVSKDHDRFAEMAVEAVINVMDKDRKDVDFDLIKMQGRVGGSISDSKLINGVILDKDFSHPQMPKCVLPKEGSDGVKLAILTCPFEPPKPKTKHKLDISSVEEYQKLQTYEQDKFKEMIDDVKKAGADVVICQWGFDDEANHLLLQNDLPAVRWVGGQELEHIAISTNGRIVPRFQDLSKDKLGTCSRIYEQEFGTTKDRMLIIEQSKETKTVTCFVRGSNKMIVDEAERALHDSLCVVRNLVKDSRVVYGGGAAEVTMSLAVSEEADKQRGIDQYAFRGFAQALDTIPMTLAENSGLDPIGTLSTLKSKQLKEKISNIGVDCLGYGSNDMKELFVVDPFIGKKQQILLATQLCRMILKIDNVIISGKDEY
Consider B8, for which, in series [4], the binding result is recorded as “binds”.

For the origin of these results see publication doi:10.1101/2021.02.24.432666 (bioRxiv, 2021).
